Test [1] deals with T1, mouse latent myostatin (mouse, UniProt O08689 26-267; O08689 268-376).
T1 sequence 1: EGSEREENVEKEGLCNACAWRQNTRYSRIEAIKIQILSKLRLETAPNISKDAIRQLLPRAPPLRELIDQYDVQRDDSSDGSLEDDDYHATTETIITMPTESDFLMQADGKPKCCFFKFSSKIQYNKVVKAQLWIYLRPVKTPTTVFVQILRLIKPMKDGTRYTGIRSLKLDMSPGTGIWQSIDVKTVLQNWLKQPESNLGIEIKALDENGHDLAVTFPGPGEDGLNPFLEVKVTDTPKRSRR
T1 sequence 2: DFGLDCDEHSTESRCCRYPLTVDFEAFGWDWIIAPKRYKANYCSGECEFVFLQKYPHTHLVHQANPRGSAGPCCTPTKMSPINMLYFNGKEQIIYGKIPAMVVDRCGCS
Kind of test: SPR affinity condition pH5.8 37C; pH 5.8.

Test [2] deals with T2, human latent myostatin (human, UniProt O14793 25-266; O14793 267-375).
T2 construct: non-covalent complex of two propeptides and the mature homodimer; also called human myostatin latent form
T2 sequence 1: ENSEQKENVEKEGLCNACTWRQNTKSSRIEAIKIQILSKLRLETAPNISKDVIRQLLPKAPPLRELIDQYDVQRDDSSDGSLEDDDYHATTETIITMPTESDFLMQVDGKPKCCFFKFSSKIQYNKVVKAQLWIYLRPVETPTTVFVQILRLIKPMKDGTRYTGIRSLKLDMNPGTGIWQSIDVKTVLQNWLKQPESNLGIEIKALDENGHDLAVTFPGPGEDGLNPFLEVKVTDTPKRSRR
T2 sequence 2: T1 sequence 2
Kind of test: SPR affinity condition pH5.8 37C; pH 5.8.

For test [3], the target named is T3, cynomolgus monkey latent myostatin (cynomolgus monkey, UniProt Q95J86 25-266; Q95J86 267-375, limits assumed).
T3 construct: also called cyno latent myostatin
T3 sequence 1: T2 sequence 1 with V52A
T3 sequence 2: T1 sequence 2
Kind of test: SPR affinity condition pH5.8 37C; pH 5.8.

The target in test [4] is T1, mouse latent myostatin. The experiment in a line: SPR affinity condition pH7.4 37C; pH 7.4.
For test [5], the target named is T2, human latent myostatin. Kind of test: SPR affinity condition pH7.4 37C; pH 7.4.
The target in test [6] is T3, cynomolgus monkey latent myostatin. Kind of test: SPR affinity condition pH7.4 37C; pH 7.4.
Test [7] deals with T1, mouse latent myostatin. The experiment in a line: SPR avidity condition pH5.8 37C; pH 5.8.
Test [8] concerns the target T2, human latent myostatin. Kind of test: SPR avidity condition pH5.8 37C; pH 5.8.
In test [9] the target is T3, cynomolgus monkey latent myostatin. The experiment in a line: SPR avidity condition pH5.8 37C; pH 5.8.
Test [10] addresses T2, human latent myostatin. The experiment in a line: SPR 37C pH7.4.
The target of test [11] is T1, mouse latent myostatin. The experiment in a line: SPR avidity condition pH7.4 37C; pH 7.4.
Test [12] concerns the target T2, human latent myostatin. Kind of test: SPR avidity condition pH7.4 37C; pH 7.4.
In test [13] the target is T3, cynomolgus monkey latent myostatin. Kind of test: SPR avidity condition pH7.4 37C; pH 7.4.
The target in test [14] is T2, human latent myostatin. The experiment in a line: SPR, dissociation phase at pH5.8.
Test [15] concerns the target T1, mouse latent myostatin. The experiment in a line: SPR affinity condition pH7.4 37C.
Test [16] deals with T2, human latent myostatin. The experiment in a line: SPR affinity condition pH7.4 37C.
Test [17] addresses T3, cynomolgus monkey latent myostatin. The experiment in a line: SPR affinity condition pH7.4 37C.
Test [18] has as its target T4, human Fc gamma RIIIaV extracellular domain, His-tagged (human, UniProt P08637 17-208).
T4 construct: also called FcgRIIIaV
The experiment in a line: SPR 25C.

Test [19] deals with T5, human Fc gamma RIIb extracellular domain, His-tagged (human, UniProt P31994 43-217).
T5 construct: also called FcgRIIb
T5 sequence: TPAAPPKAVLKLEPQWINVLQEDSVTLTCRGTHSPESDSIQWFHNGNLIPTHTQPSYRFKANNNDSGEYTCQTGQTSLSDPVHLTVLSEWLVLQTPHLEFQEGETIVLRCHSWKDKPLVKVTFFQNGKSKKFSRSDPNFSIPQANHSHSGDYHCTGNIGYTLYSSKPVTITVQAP
Kind of test: SPR 25C, antigen-antibody complex injected over captured His-tagged receptor.

The target of the next test is T6, GST-hMSTN 121-220aa (human, UniProt A1C2U3 121-220 (Pongo pygmaeus entry)).
T6 construct: not shown: GST tag of pGEX4.1 vector
T6 sequence: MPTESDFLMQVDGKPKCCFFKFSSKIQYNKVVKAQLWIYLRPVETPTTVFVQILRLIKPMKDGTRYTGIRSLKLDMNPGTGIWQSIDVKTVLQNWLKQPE
Kind of test: Western blot.

In the next test the target is T7, GST-hMSTN 141-241aa (human, UniProt A1C2U3 141-241 (Pongo pygmaeus entry)).
T7 construct: not shown: GST tag of pGEX4.1 vector
T7 sequence: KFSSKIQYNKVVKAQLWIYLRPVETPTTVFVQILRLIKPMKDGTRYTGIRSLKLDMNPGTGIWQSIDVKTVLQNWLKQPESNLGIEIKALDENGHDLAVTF
Kind of test: Western blot. A general note: In western blotting, separated proteins are transferred to a membrane and probed.

Another test has as its target T8, GST-hMSTN 101-200aa (human, UniProt A1C2U3 101-200 (Pongo pygmaeus entry)).
T8 construct: not shown: GST tag of pGEX4.1 vector
T8 sequence: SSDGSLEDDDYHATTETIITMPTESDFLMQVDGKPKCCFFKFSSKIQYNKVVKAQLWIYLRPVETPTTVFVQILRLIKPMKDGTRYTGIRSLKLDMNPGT
The experiment in a line: Western blot.

Numbering of substitutions follows the chain as printed. Names and notes keep the numbering of the source.

By koff is commonly meant the rate constant with which the complex falls apart. One may read the kon as the rate constant with which the complex forms.

T4 sequence (P08637 17-208 F176V): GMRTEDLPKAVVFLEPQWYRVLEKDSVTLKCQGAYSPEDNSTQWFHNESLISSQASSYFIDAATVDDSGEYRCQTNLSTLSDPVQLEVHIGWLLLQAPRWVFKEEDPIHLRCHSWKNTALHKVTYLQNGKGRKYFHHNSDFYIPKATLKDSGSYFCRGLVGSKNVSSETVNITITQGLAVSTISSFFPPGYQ

B1: MS_M103205H000-SG1/M103202L000-SK1 (antibody, human IgG1, kappa, V domains shown)
VH: QVTLKESGPVLVKPTETLTLTCTVSGIDLSSYDISWVRQAPGKGLEWVGIISYAGSTYYASWAKGRLTISKDTSKNQVVLTMTNMDPVDTATYYCARGVPAYSTGGDLWGQGTLVTVSS
VL: DIVMTQSPATLSLSPGERATLSCQSSQSVYDNNWLSWFQQKPGQPPKLLIYWASTLASGVPSRFSGSGSGTDFTLTISSLQPEDAATYYCAGGYGGGLYAFGQGTKVEIKR
notes: humanized; also called MS1032LO00-SG1; Ab001
Regarding B1, the Kd with mouse latent myostatin [1] is 0.0438 nM; in the test with human latent myostatin [2] it was 0.215 nM; in test [3], 0.139 nM; in the test with mouse latent myostatin [4], 0.122 nM; with human latent myostatin [5] it was 0.23 nM; in test [6], 0.209 nM. In addition, the Kd with mouse latent myostatin [7] was found to be 0.0087 nM; with human latent myostatin [8], 0.0797 nM; in test [9] it was 0.00883 nM; in the test with human latent myostatin [10], 0.075 nM; in the test with mouse latent myostatin [11], 0.0471 nM; with human latent myostatin [12] it was 0.075 nM. Also, the Kd in test [13] is 0.0666 nM. Besides, the koff with mouse latent myostatin [1] is 7.08e-05 s⁻¹; with human latent myostatin [2] it was 0.000235 s⁻¹; in test [3] it was 0.000196 s⁻¹; with mouse latent myostatin [4] it was 0.00016 s⁻¹; in the test with human latent myostatin [5] it was 0.000245 s⁻¹; in test [6], 0.000213 s⁻¹. Further, the koff in the test with mouse latent myostatin [7] stood at 2.02e-05 s⁻¹; in the test with human latent myostatin [8], 0.000128 s⁻¹; in [9] it was 1.58e-05 s⁻¹; with human latent myostatin [10] it was 9.52e-05 s⁻¹; with mouse latent myostatin [11] it was 7.18e-05 s⁻¹; with human latent myostatin [12], 9.52e-05 s⁻¹. In addition, the koff is 8.08e-05 s⁻¹ in [13] and 2.92e-05 s⁻¹ with human latent myostatin [14]. The kon is 1.62e+06 M⁻¹ s⁻¹ with mouse latent myostatin [1]; 1.09e+06 M⁻¹ s⁻¹ with human latent myostatin [2]; 1.41e+06 M⁻¹ s⁻¹ in test [3]; 1.31e+06 M⁻¹ s⁻¹ with mouse latent myostatin [4]; 1.07e+06 M⁻¹ s⁻¹ with human latent myostatin [5]; 1.02e+06 M⁻¹ s⁻¹ in test [6]. The kon with mouse latent myostatin [7] stood at 2.32e+06 M⁻¹ s⁻¹; in the test with human latent myostatin [8], 1.6e+06 M⁻¹ s⁻¹; in [9] it was 1.79e+06 M⁻¹ s⁻¹; with human latent myostatin [10], 1.27e+06 M⁻¹ s⁻¹; with mouse latent myostatin [11], 1.52e+06 M⁻¹ s⁻¹; in the test with human latent myostatin [12], 1.27e+06 M⁻¹ s⁻¹. In test [13], this molecule had a kon of 1.21e+06 M⁻¹ s⁻¹.

B2: MS_M103205H714-SG1/M103202L861-SK1 (antibody, human IgG1, kappa, V domains shown)
VH: B1 VH with S31H, Y32T, T104H
VL: B1 VL with Q24T, D31H, S58Y, L98R
notes: also called MS1032LO01-SG1
In the case of B2, the Kd is 0.713 nM with mouse latent myostatin [15]; 0.788 nM in the test with human latent myostatin [16]; 0.954 nM in test [17]; 6.15 nM with mouse latent myostatin [7]; 19.5 nM with human latent myostatin [8]; 8.9 nM in [9]. Moreover, the values for the Kd (with mouse latent myostatin [11]; in test [13]) were 0.149 nM and 0.165 nM, respectively. Besides, the dissociation rate constant (koff) worked out at 0.00107 s⁻¹ with mouse latent myostatin [15]; 0.00129 s⁻¹ in the test with human latent myostatin [16]; 0.0011 s⁻¹ in [17]; 0.00625 s⁻¹ in the test with mouse latent myostatin [7]; 0.0242 s⁻¹ in the test with human latent myostatin [8]; 0.0068 s⁻¹ in test [9]. For the same molecule, the koff is 0.000217 s⁻¹ with mouse latent myostatin [11] and 0.000197 s⁻¹ in test [13]. The kon in the test with mouse latent myostatin [15] was 1.5e+06 M⁻¹ s⁻¹; with human latent myostatin [16], 1.64e+06 M⁻¹ s⁻¹; in test [17], 1.15e+06 M⁻¹ s⁻¹; with mouse latent myostatin [7] it was 1.02e+06 M⁻¹ s⁻¹; in the test with human latent myostatin [8], 1.22e+06 M⁻¹ s⁻¹; in test [9], 764000 M⁻¹ s⁻¹. The values for the kon (in the test with mouse latent myostatin [11]; in test [13]) were 1.45e+06 M⁻¹ s⁻¹ and 1.19e+06 M⁻¹ s⁻¹, respectively.

B3: GpH7-B3 N325L/GpL16-k0 (antibody, human IgG1, kappa)
heavy: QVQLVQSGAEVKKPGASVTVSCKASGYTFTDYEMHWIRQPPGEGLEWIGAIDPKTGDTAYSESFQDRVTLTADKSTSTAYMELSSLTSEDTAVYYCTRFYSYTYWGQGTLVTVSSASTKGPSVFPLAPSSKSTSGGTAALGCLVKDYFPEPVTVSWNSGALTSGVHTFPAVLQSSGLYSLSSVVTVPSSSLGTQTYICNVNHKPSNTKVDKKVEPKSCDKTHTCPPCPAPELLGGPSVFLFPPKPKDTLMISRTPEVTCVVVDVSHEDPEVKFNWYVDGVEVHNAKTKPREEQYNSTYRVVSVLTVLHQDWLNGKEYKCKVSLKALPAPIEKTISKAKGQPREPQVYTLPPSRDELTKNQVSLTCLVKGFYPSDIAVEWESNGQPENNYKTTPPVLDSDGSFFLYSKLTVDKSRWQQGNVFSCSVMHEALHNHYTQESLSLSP
light: DIVMTQSPLSLPVTPGEPASISCQASESLVHSNRNTYLHWYLQKPGQSPQLLIYKVSNRFSGVPDRFSGSGSGTDFTLKISRVEAEDVGVYYCSQNTHVPPTFGQGTKVEIERTVAAPSVFIFPPSDEQLKSGTASVVCLLNNFYPREAKVQWKVDNALQSGNSQESVTEQDSKDSTYSLSSTLTLSKADYEKHKVYACEVTHQGLSSPVTKSFNRGEC
notes: copies: 2 + 2
In the case of B3, the relative binding in test [18] came out at 0 parent B3=100.

B4: MS1032LO06-P1499m (antibody, human IgG1, kappa)
heavy: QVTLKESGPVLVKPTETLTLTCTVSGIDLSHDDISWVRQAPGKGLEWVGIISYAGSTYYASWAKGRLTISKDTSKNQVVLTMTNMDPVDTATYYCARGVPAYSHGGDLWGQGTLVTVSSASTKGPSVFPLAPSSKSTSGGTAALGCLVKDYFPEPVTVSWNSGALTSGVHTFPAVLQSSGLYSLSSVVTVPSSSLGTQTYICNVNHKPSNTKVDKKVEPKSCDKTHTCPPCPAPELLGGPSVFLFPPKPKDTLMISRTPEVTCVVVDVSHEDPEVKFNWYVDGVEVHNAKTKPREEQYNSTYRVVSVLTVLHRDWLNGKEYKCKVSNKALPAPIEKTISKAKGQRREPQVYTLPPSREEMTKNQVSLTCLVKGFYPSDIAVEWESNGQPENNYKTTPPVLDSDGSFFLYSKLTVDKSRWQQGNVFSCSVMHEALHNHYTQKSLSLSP
light: DIVMTQSPATLSLSPGERATLSCTSSQSVYHANWLSWFQQKPGQPPKLLIYWASTLAYGVPSRFSGSGSGTDFTLTISSLQPEDAATYYCAGGYGGGRYAFGQGTKVEIKRTVAAPSVFIFPPSDEQLKSGTASVVCLLNNFYPREAKVQWKVDNALQSGNSQESVTEQDSKDSTYSLSSTLTLSKADYEKHKVYACEVTHQGLSSPVTKSFNRGEC
With B4, the binding result in [19] is “binds”.

B5: MS1032LO06-P1540m (antibody, human IgG1, kappa)
heavy: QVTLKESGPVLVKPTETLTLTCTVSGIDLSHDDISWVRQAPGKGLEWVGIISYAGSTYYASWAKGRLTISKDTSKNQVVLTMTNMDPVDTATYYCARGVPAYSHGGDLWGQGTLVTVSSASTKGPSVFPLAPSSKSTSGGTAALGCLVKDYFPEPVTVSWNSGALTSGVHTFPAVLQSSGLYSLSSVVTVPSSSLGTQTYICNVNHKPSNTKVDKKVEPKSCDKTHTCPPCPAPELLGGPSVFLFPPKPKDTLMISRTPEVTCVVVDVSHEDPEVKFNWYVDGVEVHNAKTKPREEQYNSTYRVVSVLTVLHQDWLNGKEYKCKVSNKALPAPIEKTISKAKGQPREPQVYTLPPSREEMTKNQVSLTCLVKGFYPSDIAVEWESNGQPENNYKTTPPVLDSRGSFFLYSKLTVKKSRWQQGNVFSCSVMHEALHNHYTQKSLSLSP
light: B4 light
notes: copies: 2 + 2
For B5, the binding result in test [19] is “binds”.

B6: MS103205H795-SG141/M103202L889-SK1 (antibody, human IgG1, kappa)
heavy: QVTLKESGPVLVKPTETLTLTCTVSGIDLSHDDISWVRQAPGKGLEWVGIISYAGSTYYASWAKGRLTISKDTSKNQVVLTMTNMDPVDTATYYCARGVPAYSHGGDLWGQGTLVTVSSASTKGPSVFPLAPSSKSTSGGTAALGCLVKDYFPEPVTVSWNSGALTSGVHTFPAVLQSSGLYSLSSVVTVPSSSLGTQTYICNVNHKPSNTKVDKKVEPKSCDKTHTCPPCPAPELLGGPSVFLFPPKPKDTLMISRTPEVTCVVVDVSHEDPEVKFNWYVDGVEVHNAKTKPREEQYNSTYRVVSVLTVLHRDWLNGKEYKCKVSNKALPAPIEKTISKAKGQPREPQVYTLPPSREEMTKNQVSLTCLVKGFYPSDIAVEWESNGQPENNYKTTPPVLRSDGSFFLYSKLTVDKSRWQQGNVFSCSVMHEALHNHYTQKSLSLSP
light: B4 light
notes: copies: 2 + 2
In the case of B6, in test [19], the binding result was “binds”.

B7: MST1032 (as used in Example 26) (antibody, V domains shown)
VH: QSLEESGGRLVTPGGSLTVTCRVSGIDLSSYDISWVRQAPGKGLEWIGIISYAGSTYYASWAKGRFTISKTSTTVDLKMTSLTTEDTATYFCARGVPAYSTGGDLWGPGTLVTVSS
VL: AQVLTQTASSVSAAVGGTVTINCQSSQSVYDNNWLSWFQQKPGQPPKLLIYWASTLASGVPSRFKGSGSGTQFTLTISDLECDDAATYYCAGGYGGGLYAFGGGTKVEIK
Turning to B7, the binding result in the test with GST-hMSTN 121-220aa, in the test with GST-hMSTN 141-241aa and with GST-hMSTN 101-200aa was “no binding” each time.

The record behind these values is patent EP4755449A2 (CHUGAI SEIYAKU KABUSHIKI KAISHA, dated 2026).
